One experiment concerns the target T1, Peptide 15 (human).
T1 peptide: Biotin-DSMRNLKASLENSLREVE
The experiment is described as follows: solid phase ELISA; biotinylated peptide on plate, antibody 2 ug/ml. As for the experimental part: (§1) (1) The peptides shown in Table 2 were synthesized, and biotin was added to the N-terminal side. (2) The synthesized peptides were dissolved in 80% DMSO solution and further diluted to 1 μg/ml with PBST. (3) After washing an ELISA plate three times with PBST, a biotinylated peptide was added thereto at 100 μL/well, and the plate was allowed to stand at room temperature for 1 hour to immobilize the peptide. Thereafter, the plate was washed three times with PBST, and Buffer I′ (10 mM NaH₂PO₄.2H₂O, 149.7 mM NaCl, 2.5 mM EDTA 2Na, 0.10% BSA, pH 7.0) was added thereto at 200 μL/well to prepare a plate stored at 4° C. overnight. (4) The plate was washed three times with PBST, and an antibody diluted to 2 μg/ml was added thereto at 50 μL/well, followed by shaking at room temperature for 1 hour. (5) The plate was washed three times with PBST, and an Anti-Mouse IgG POD antibody diluted about 5000 fold with Buffer I′ (10 mM NaH₂PO₄.2H₂O, 149.7 mM NaCl, 2.5 mM EDTA 2Na, 0.10% BSA, pH 7.0) was added thereto at 50 μL/well, followed by shaking at room temperature for 1 hour. (6) The plate was washed three times with PBST, TMB Mix (1-step Ultra TMB-ELISA (Thermo Scientific):3% H₂O₂: Phosphate-Citrate buffer (Sigma)=15:0.15:14.85) was added thereto at 100 μL/well, and the mixture was reacted at room temperature for 10 minutes. Thereafter, 1 M H₂SO₄ was added thereto at 100 μL/well to stop the reaction. (7) Absorbance of the reaction solution at 450 nm was measured with a plate reader.

A further experiment concerns the target T2, Peptide 7 (human).
T2 peptide: Biotin-NREELDKYWSQQIEESTT
Described as above. As for the experimental part: as §1

For a further experiment, the target named is T3, Peptide 3 (human).
T3 peptide: Biotin-APKSQDLAKIMADIRAQY
Described as above. As for the experimental part: as §1

Another experiment concerns the target T4, Peptide 11 (human).
T4 peptide: Biotin-AEVGAAETTLTELRRTVQ
The experiment is described as above. Here is the method:
as §1

For a further experiment, the target named is T5, Peptide 18 (human).
T5 peptide: Biotin-ARYALQMEQLNGILLHLE
The experiment is described as above. As for the experimental part:
as §1

A further experiment addresses T6, Peptide 14 (human).
T6 peptide: Biotin-SLEIDLDSMRNLKASLEN
The experiment is described as above. Here is the method:
as §1

The next experiment addresses T7, Peptide 4 (human).
T7 peptide: Biotin-LAKIMADIRAQYDELARK
The experiment is described as above. As for the experimental part:
as §1

The target of another experiment is T8, Peptide 5 (human).
T8 peptide: Biotin-DIRAQYDELARKNREELD
The description is as above. As for the experimental part:
as §1

The next experiment addresses T9, Peptide 17 (human).
T9 peptide: Biotin-SLREVEARYALQMEQLNG
The description is as above. As for the experimental part: as §1

The next experiment addresses T10, Peptide 10 (human).
T10 peptide: Biotin-VVTTQSAEVGAAETTLTE
The experiment is described as above. Here is the method:
as §1

The target in a further experiment is T11, Peptide 9 (human).
T11 peptide: Biotin-IEESTTVVTTQSAEVGAA
Described as above. Here is the method: as §1

For a further experiment, the target named is Peptide 6 (human, biotin added to the N-terminal side). The experiment is described as above. Here is the method:
as §1

Another experiment deals with T12, Peptide 13 (human).
T12 peptide: Biotin-LRRTVQSLEIDLDSMRNL
The experiment is described as above. As for the experimental part:
as §1

The target in a further experiment is T13, Peptide 12 (human).
T13 peptide: Biotin-ETTLTELRRTVQSLEIDL
Described as above. Here is the method:
as §1

The target of a further experiment is T14, Peptide 16 (human).
T14 peptide: Biotin-KASLENSLREVEARYALQ
The description is as above. Here is the method:
as §1

A further experiment addresses Peptide 8 (human, biotin added to the N-terminal side). Described as above. Here is the method: as §1
A further experiment has as its target T15, Peptide 24 (human).
T15 peptide: Biotin-ALLNIKVKLEAEIATYRR
Described as above.

Experiment [1] addresses T16, Peptide 26 (human).
T16 peptide: Biotin-IATYRRLLEDGEDFNLGD
The experiment is described as above.

The next experiment has as its target T17, Peptide 19 (human).
T17 peptide: Biotin-MEQLNGILLHLESELAQT
Described as above.

The target in experiment [2] is T18, Peptide 25 (human).
T18 peptide: Biotin-VKLEAEIATYRRLLEDGE
Described as above.

The next experiment addresses T19, Peptide 22 (human).
T19 peptide: Biotin-RAEGQRQAQEYEALLNIK
The experiment is described as above.

The target of experiment [3] is T16, Peptide 26. The experiment is described as above. As for the experimental part:
as §1

The target in experiment [4] is T18, Peptide 25. The description is as above. As for the experimental part: as §1
A further experiment addresses T20, Peptide 27 (human).
T20 peptide: Biotin-LLEDGEDFNLGDALD
The experiment is described as above. As for the experimental part:
as §1

Experiment [5] has as its target T21, fCK18 in apoptosis-induced HepG2 cell culture supernatant (human, UniProt P05783 239-397).
T21 construct: Natural CK18 fragment from the culture supernatant of apoptosis-induced HepG2 cells (band around 18 KDa); also called fCK18 in apoptosis-inducing cells
T21 sequence: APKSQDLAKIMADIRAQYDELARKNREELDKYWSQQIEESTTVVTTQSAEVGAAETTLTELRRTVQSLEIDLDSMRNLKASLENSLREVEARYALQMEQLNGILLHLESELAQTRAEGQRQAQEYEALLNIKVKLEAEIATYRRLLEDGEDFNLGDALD
The experiment is described as follows: HISCL sandwich immunoassay; K18-624 magnetic microbeads capture, K18-328Fab-ALP detector; fCK18 0.74 ng/mL.

Like-named read-outs stand apart in the source and are kept apart here. Where no end group is shown, it is not given here. The star is where a group is joined. Biotin = O=C1N[C@H]2[C@H](CS[C@H]2CCCCC(=O)*)N1

B1: K18-328 antibody (antibody, V domains shown)
VH: QVHLQQSAAELARPGASVKMSCKASGYTFTNYTIHWIKQRPGQGLEWIGYINPSSGYTDYNQNFKDKTTLTADKSSTTVYMQLSSLTSEDSAVYYCARQIPFAYWGQGTLVTVSA
VL: not shown
notes: Mouse monoclonal antibody from a hybridoma (immunogen full length rCK18)
Take B1: the Abs450 in the experiment with Peptide 15 was 0; with Peptide 7 it was 0; with Peptide 3 it was 0.04; with Peptide 11, 0.01; in the experiment with Peptide 18, 0.02; with Peptide 14, -0.01. Besides, the Abs450 with Peptide 4 is 0.01; with Peptide 5, -0.01; with Peptide 17, 1.55; with Peptide 10 it was 0; with Peptide 9, -0.01; with Peptide 6, 0.01. In addition, the Abs450 with Peptide 13 was 0.01; with Peptide 12, 0; with Peptide 16 it was 0.04; with Peptide 8, -0.01; with Peptide 24 it was 0.01; in the experiment with Peptide 26 [1] it was 0.01. Further, the values for the Abs450 in the experiment with Peptide 19, in the experiment with Peptide 25 [2] and in the experiment with Peptide 22 were 0.01, 0.01 and 0, respectively.

B2: K18-624 antibody (antibody, V domains shown)
VH: DVQLVESGGGLVQPGGSRKLSCAASGFTFSSFGMHWVRQAPEKGLEWVAYISSGSTTIYYADTVKGRFTISRDNPKNTLFLQMTSLRSEDTAMYYCARRGMITTGAWFAYWGQGTLVTVSA
VL: DILLTQSPAILSVSPGERVSFSCRASQRIGTSIHWYQQRTNGSPRLLIKYASESISGIPSRFSGSGSGTDFTLSINSVESEDIADYYCQQSYIWPFTFGSGTKLEIK
notes: Mouse monoclonal antibody from a hybridoma (Balb/C mouse immunised with Peptide 1-KLH)
For the molecule B2, the Abs450 in the experiment with Peptide 26 [3] came out at 0.14; with Peptide 25 [4] it was 0.14; in the experiment with Peptide 27, 2.34. Besides, the S/N ratio in [5] stood at 9.4.
